Assay results published in the PETadex activity labels.

B1: unnamed (protein)
chain: MHQGIHMERKNIRRRWAIGLLGMLVLAASAHAQTNPHQKGPDPTSASLNATSGSFSVATSSVSSLGAVGFGGGTVYYPTTTGTYAVLAICPGFTATQSSIAWLGRRIATHGFVVITIDTNSTLDQPPSRATQLMAALNYVTNSSSATVRSRVDASRRGVAGHSMGGGGTLYAARDNPSLKAAVPLTAWSTLKSFSSVQVPTLVVGAESDSIASVSSHSIPFYNSLSTSLDKAYAELNGATHFAPNSTNTPIGRYSVSWVKRFMDNDTRYTPFLCGAPHQSYATSLVFSDYRSTCPY
B2: unnamed (protein)
chain: MKHDRRYRWGRLAGLAALLLAPVAAQAQTVLFSEDFEGGLGAFSAGGNVFTATVFNGTSGVRLRGGSSDGVITSPPISTEGFSEVTLFFERTTDGSLDFGEFGIAEVSVDGGATFAVVEATQGGPAAVSIPLGAAAADQAAVVLRFRIAASSFFEDIEVDNVVLEGVGSGDPGPGPDPDPGPDPDPDPDPEPEPDNPFARGPDPTEATLEASSGPFAVDSFRPSSTPGFGAGTIWYPSGTNEGPFAAIAVAPGFVGGESTIDWLGSRLASHGFVVITISTSSLFDFPDSRASQLLAALDIVIAESNGSSPISGLVDPDRTGLSGHSMGGGGSLIATEDHPSIDAVVPLAPWNPSTNFSAIDQPTLIVACENDTVAPVNQHASPMYESISSSVDKAFLEIDGADHFCVNSGNAQQDTLGKFIVSWMKRFLDQDTRYDPFLCGPDHEADPDISEFRDTCPF
B3: unnamed (protein)
chain: MMKSIIARLAIGTSVLLFSVSAFSFTPGPTPDPDPDPNPNPCEVDCDFSRGPNPTASYLEAASGPYTVRTMRVSSSVTGFGGGTIHYPTGTTGKMGAIAVVPGFLAGESSISWWGPRLASHGFVVITIATNSAFDQPASREAQLGRALDYVIAQSNASGNAISGMVDSSRVGAMGWSMGGGGTLRIASGGRLSAAIPLAPWHTGSNDFNQISTPTMIIACENDGTAPVNSHASPFYNRIPASTDKAYLEINNGGHSCANGGGSNGGLLGKYGVSWMKRFIDKDTRYNQFLCGPNHASNSAISEYRETCNY
B4: unnamed (protein)
chain: MVRGVRAALRLASLVAVAVLPACGSGGGSSPTPASTPMATPIAPTPAPTLAPAPPTSPPFTRGPAPSTSALEATEGPFAVAQLTIDRTAAAGYGAGTVSYPTDTREGPFGAIAVSPGYTGVQRSMQWFGPRLASHGFVVIVIDTLSLTNNAEARAAQLIAALNQLIALSGTSGHPLQGKVDGNRLGVIGHSYGGGGALVAARDNPALKAAVPLAPFYESNDFSRLTVPTLVVGCQRDTVAAVSQRAIPMYESIPASVSKAYLELAGGDHLCVETGNGNKAIQGKYTVAWMKRFLDDDVRYSPYLCGSPHQADLAGDAVSAYRETCPY
B5: unnamed (protein)
chain: MNALSWTPSPTPNPDPTPDPTPCQGDCDFTRGPNPTLSSVATMGPYSVSTQSVSSSVSGFGGGTIHFPTNTAGTMGAIAVAPGFLSPESSIKWWGPRLASHGFVVITIATNSVFDQPNSRETQISRALDYVINQSNSSNSAISGMVDNTRVGAMGWSMGGGGALRLASGDRLSAAIPLAPWHQGSNSFNQLETPTLIIACENDVVAPVNNHASPFYNAIPSTTDKALLEINNGAHSCANGGGTNGGLLTKYGVSWMKRFIDNDLRYDQFLCGPDHAANNAVSEYRGTCNY
B6: unnamed (protein)
chain: MRTRGTRPLRRLAAIFLLALVIAACDTKGPDPTEQILTASSGPFGVATLAVPSSAGFGGGTIYYPTGVEGPFAVISVTPGFTETAASLDWGPRLASHGFVAIVINTSNIFEDPTTRSNEQRQALTYAAAQSDSASSPIHGLVDGNRRGVTGHSMGGGGTLISAQADPAIRAAVPLAPWNGSPTFSGITVPTLFIACQNDVIAPVANHASPMYNSIPASTHKSYLSIAGGDHFCANAASGGSGQVGKFVVAFFKRFLDGDTRYDPWVCGASKPAVTSVINEVRSTCPF
B7: unnamed (protein)
chain: MNKSILEKMVVGTSALLFSLSAFSFTPDPTPDPDPEPEPCQGECDFTRGPAPTSSYLEASSGPYSVDTVGVSRSVSGFGGGTIYYPTSTSGTMGAIAIVPGFLAGESSISWWGPRLASHGFVVITIATNSTFDQPASRSTQLSRALDYVVSQSNSNSSPISGKVDSTRLGAMGWSMGGGGALRLASGNRLAAAIPLAPWNTGSNSFNQIDTPTLIFACENDTTARVGTHASPFYNRIPASTDKAYLEINNGSHSCANGGGSNGGLLGKYGVSWMKRFIDEDTRYSQFLCGPNHEANSAISEYRETCNY
B8: unnamed (protein)
chain: MFDDMNHTTQSKFSRLLQVSLATSALALSLGVQAQQTGADPTTASIEQAGPLAVANVKVATPSGYGSGTVYYPTTGSAYGLVSVTPGFTEGQSAINWLGPLLASHGFVVVTIGTKTILDVPTNRAKQMMAALAQVTALSATKTSPFAGKVDASRLAVMGHSMGGGGSLDAARDNPNLKASIPLAPWETTKDYSKTTVPTLIVSCESDAIAPVKDHANKFYDSFTPTLTKALLEMKGASHFCTNSSANAATKTLIGKYSISWLKRFVDGDTRYSPFLCGAPHQADLAGSLISTYKENCPY
B9: unnamed (protein)
chain: MKSTQGSKFALSLLTAGTLLFSMSALGFNAPDPDPQPDPDPCEGDCGYTRGPDPTTSLLEASSGPYSVRTDSVSSRVSGFSGGTIYYPTGTSGRMGAIVVAPGFLSPESSISWWGPRLASHGFVVITVQINSGYDQPASRQAQMDAALDHVISESNSSSSPISGMVDSSRLGAMGWSMGGGGALRMAAGDRLSAAIPLAPWHSGRDNFDQIRTPTLIFACENDSVAPVRSHASPFYNDIPNSTSKAFFEINGGSHTCANGGRSNGDLLGRIGVSWMKRHIDQDTRYNQFLCGPNHESDGDISEYRGTCPL
B10: unnamed (protein)
chain: MTIRPFVRNAVLAAGLLVGAASAQAQVAVFQENFSNGLGAFTASGTVSTGTGAARLQGCYGCTDGQIVSSAISTQGFTNLSLSFDRVTSGLYIGESGTAEFSVDGTNWTVVESTRVTSPGRVTFDLPASAAGQAALRLRFRIDARLSSETYTVDNVELTGTVGDTGGGTPGANPYAKGPDPTVALLEAGTGPFTYTRTTVSRTAASGYGGGTIYHPTGVAGPFGAIAISPGYTAYQSSISWLGERLASHGFVVITIDTFTTSDQPSSRATQLMAALRQLVAYGNTSSHPIYGKVDPNRLGVMGHSMGGGGSLIAARDNPSLKAAVPLTPWNTSSNFTAVQVPTLVVGCEADTVAPVAQHASPFYNNIPSTTKKAYLELANASHFCPVTGNGYTRLLGKYGVAWMKRFVDNDTRYSPFLCGAPHRADLSNGQLSAYRENCPY
B11: unnamed (protein)
chain: MNSHRASRLVRAALAAGALLLSAAASAQTNPYQRGPNPTASSLEASRGPFSVRSFTVSRPSGYGAGTVYYPTNAGGTVGAIAIVPGFTARQSSINWWGPRLASHGFVVITIDTNSTLDQPSSRSSQQMAALRQVATLSGTSSSPIYNKVDTSRLGVMGWSMGGGGSLISARNNPSLKAAAPQAPWNSSTNFSSVTVPTLIIACENDTIAPVNSHASPFYNSMSRNPKQFLEINGGSHSCANSGNSNQALLGKKGVAWMKRFMDNDTRYTSFACSNPNSTRVSDFRVASCS
B12: unnamed (protein)
chain: MSAADRMCPFRTLLMLLGLSMMARPTRASMRRRGRHSSITTGDSMTHIAIGLRHWAQVAVLLASVAMSALAAAQNNPYAKGPDRTTADLEAELGSFAVASASIPRANASGFGGGTIYYPTASGSCGAISISPGYTATQVNIAWLGPRLASRGFVVITIDTFTTSDLPDSRATQLQAALNQAVSLSQTAGHVIYGKVDARRLAVAGDSLGGGGALLAGLNNPMLKAAVGLVPYSYTQNFSTEQVPTLMIGGQKDTTATPSKHAIAFYNSIPSTTDKAYMELAGADHYLPHRTQYFPVIGRYMIAWYKRFVDNDTRYSPFLCGAIQQADVANTALVSKYLQNCSY
B13: unnamed (protein)
chain: MKITAHKTARGVANFAKASLFVAALAVTSLANAQYQKGPDPTVSALERNGSFATRSTTVSRLSASGFGGGTIYYPTASGSYGAIAVSPGFTAYQSSISWIGERLSSHGFVVITIDTITTSDQPESRGNQLKAALDKVVSLSRTSSSPLYNKVDASRLGVAGHSMGGGGTLAAARDNPSYKAAVPLAPWHTTKSWSRVSVPTLIIGGSTDAIAGVALHSIPFYTSLPSSTKKAYMELSGEGHFYPQLPSNYPIVGRYMISWFKRFMDSDTRYSPFLCGAQHQADLRLFGPFSDYRENCPY
B14: unnamed (protein)
chain: MKTSRTRRLALAAAALLLSVAAQAQSSNPYQRGPDPTAASLEASSGPFAVSTTTVSSASGFGGGTIYYPTNTEGPFAAIAVVPGFTGTQSSISWWGPRLASHGFVVITIDTNSTFDQPDSRATQLMAALNYVVSQSNTSSSPIYGKVDSNRLGVMGHSMGGGGTLIAARDNPTLKAAIPLAPWNSSTNFSSVTVPTLIIACENDTVAPVSSHASPFYNSIPSSTDKAYLEINGGDHFCANSGNSNKAILGKYGVAWMKRFLDNDTRYDPFLCGAPHQADGSAISEYRDNCPY

These proteins were tested on BHET. Conditions: 120 h.
B1 was tested, and the plate clearing was “not clears the plate”. For B2, the plate clearing was “not clears the plate”. B3 was tested, and the plate clearing was “not clears the plate”. With B4 the plate clearing was “not clears the plate”. B5 was tested, and the plate clearing was “not clears the plate”. For B6, the plate clearing was “not clears the plate”. For B7, the plate clearing was “not clears the plate”. B8 was tested, and the plate clearing was “not clears the plate”. B9 was tested, and the plate clearing was “not clears the plate”. With B10 the plate clearing was “clears the plate (z > 3 vs empty vector)”. B11 was tested, and the plate clearing was “not clears the plate”. With B12 the plate clearing was “not clears the plate”. B13 was tested, and the plate clearing was “not clears the plate”. In the case of B14, the plate clearing is reported as “clears the plate (z > 3 vs empty vector)”.
